The text below walks through data of patent publication US20250115663A1 (CELLDEX THERAPEUTICS, published 2025).

Numbering of substitutions follows the chain as printed.

What all share (experiment): ELISA, kappa-sCD40-Flag fusion captured on anti-Flag, anti-human IgG Fc-HRP
The target of test [1] is T1, kappa-sCD40-Flag fusion protein, fragment amino acids 84-173 (human, UniProt P25942 104-193).
T1 construct: not shown: N-terminal human kappa light chain; C-terminal Flag tag

Test [2] has as its target T2, kappa-sCD40(1-94)-Flag point mutant A5T (human, UniProt P25942 21-114).
T2 construct: not shown: N-terminal human kappa light chain; C-terminal Flag tag
T2 chain: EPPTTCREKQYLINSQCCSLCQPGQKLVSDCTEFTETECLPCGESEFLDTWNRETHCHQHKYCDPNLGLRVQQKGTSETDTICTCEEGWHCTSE

Test [3] has as its target T3, kappa-sCD40-Flag fusion protein, fragment amino acids 36-130 (human, UniProt P25942 56-150).
T3 construct: not shown: N-terminal human kappa light chain; C-terminal Flag tag

For test [4], the target named is T4, kappa-sCD40(1-94)-Flag point mutant F34L (human, UniProt P25942 21-114).
T4 construct: not shown: N-terminal human kappa light chain; C-terminal Flag tag
T4 chain: T2 chain with T5A, F34L

For test [5], the target named is T5, kappa-sCD40(1-94)-Flag point mutant T4V (human, UniProt P25942 21-114).
T5 construct: not shown: N-terminal human kappa light chain; C-terminal Flag tag
T5 chain: T2 chain with T4V, T5A

Test [6] has as its target T6, kappa-sCD40(1-94)-Flag point mutant E33A (human, UniProt P25942 21-114).
T6 construct: not shown: N-terminal human kappa light chain; C-terminal Flag tag
T6 chain: T2 chain with T5A, E33A

For test [7], the target named is T7, kappa-sCD40(1-94)-Flag point mutant T35E (human, UniProt P25942 21-114).
T7 construct: not shown: N-terminal human kappa light chain; C-terminal Flag tag
T7 chain: T2 chain with T5A, T35E

Test [8] addresses T8, kappa-sCD40(1-94)-Flag point mutant P3S (human, UniProt P25942 21-114).
T8 construct: not shown: N-terminal human kappa light chain; C-terminal Flag tag
T8 chain: T2 chain with P3S, T5A

Test [9] concerns the target T9, kappa-sCD40-Flag fusion protein, fragment amino acids 1-94 (human, UniProt P25942 21-114).
T9 construct: also called sCD40aa 1-94; not shown: N-terminal human kappa light chain; C-terminal Flag tag

Test [10] concerns the target T10, kappa-sCD40(1-94)-Flag point mutant E36K (human, UniProt P25942 21-114).
T10 construct: not shown: N-terminal human kappa light chain; C-terminal Flag tag
T10 chain: T2 chain with T5A, E36K

The target of test [11] is T11, kappa-sCD40(1-94)-Flag mutant fragment A (multiple mutations of residues 1-5) (human, UniProt P25942 26-114).
T11 construct: The text says only multiple mutations of residues 1-5 (human to mouse differences); that mutant A carries exactly these is inferred; also called A (1-5); not shown: N-terminal human kappa light chain; C-terminal Flag tag

Test [12] has as its target T12, kappa-sCD40(1-94)-Flag mutant fragment D (multiple mutations of residues 33-36) (human, UniProt P25942 21-114).
T12 construct: The text says only multiple mutations of residues 33-36 (human to mouse differences); that mutant D carries exactly these is inferred; also called D (33-36); not shown: N-terminal human kappa light chain; C-terminal Flag tag
T12 chain: T2 chain with T5A, E33A, F34L, T35E, E36K

Test [13] has as its target T13, kappa-sCD40(1-94)-Flag point mutant E1G (human, UniProt P25942 22-114).
T13 construct: not shown: N-terminal human kappa light chain; C-terminal Flag tag

The target in test [14] is T14, kappa-sCD40-Flag fusion protein, full length ECD amino acid residues 1-173 (human, UniProt P25942 21-193).
T14 construct: also called full length sCD40; not shown: N-terminal human kappa light chain; C-terminal Flag tag

T1 sequence (P25942 104-193): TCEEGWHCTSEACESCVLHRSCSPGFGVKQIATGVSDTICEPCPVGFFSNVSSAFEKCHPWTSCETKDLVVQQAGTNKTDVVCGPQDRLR
T3 sequence (P25942 56-150): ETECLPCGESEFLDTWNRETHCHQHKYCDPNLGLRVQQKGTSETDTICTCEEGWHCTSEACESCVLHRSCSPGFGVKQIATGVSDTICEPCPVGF

B1: anti-CD40 human monoclonal antibody 3G5 (antibody, human IgG2, V domains shown)
VH: QVQLVESGGGVVQPGKSLRLSCAASGFTFSSNGIHWVRQAPGKGLEWVAVIWSDGSNKFYADSVKGRFTISRDNSKNTLYLQMNSLRAEDTAVYYCARASGSGSYYNFFDYWGQGTLVTVSS
VL: EIVMTQSPATLSVSPGERATLSCRASQSVRSNLAWYQQKPGQAPRLLIYGASTRATGIPARFSGSGSGTEFTLTINSLQSEDFAVYYCQQHNKWITFGQGTRLEIK
notes: Human IgG2
On to B1, for which the OD came out at 0.038 OD 450-650 in [1]; 2.2 OD 450-650 in test [2]; 0.048 OD 450-650 in test [3]; 1.19 OD 450-650 in test [4]; 2.21 OD 450-650 in [5]; 0.074 OD 450-650 in [6]. Moreover, the OD in [7] worked out at 2.13 OD 450-650; in test [8], 2.19 OD 450-650; in [9] it was 2.17 OD 450-650; in test [10], 1.93 OD 450-650; in [11], 2.14 OD 450-650; in test [12], 0.042 OD 450-650. For the same molecule, the OD in test [13] stood at 2.08 OD 450-650; in test [14], 2.21 OD 450-650.

B2: anti-CD40 human monoclonal antibody 3C3 (antibody, human IgG2, kappa, V domains shown)
VH: QVQLVESGGGVVQPGRSLRLSCAGSGFIFSRYGMYWVRQAPGKGLEWVAVIWYDGSYKYYADSVKGRFTISRDNSKNTLYLQMNSLRAEDTAVYYCARESPWYYFDYWGQGTLVTVSS
VL: DIQMTQSPSSLSASVGDRVTITCRASQGISNYLAWYQQKPGKVPKLLIYAASTLQSGVPSRFSGSGSGTDFTLTISSLQPEDVATYYCQKYKSAPFTFGPGTKVDIKR
notes: Human IgG2, C-terminal lysine removed; also called anti-CD40 mAb 3C3; CD40 antibody 3C3
In the case of B2, the OD in [1] came to 0.024 OD 450-650; in [2], 1.51 OD 450-650; in test [3] it was 0.029 OD 450-650; in test [4] it was 1.84 OD 450-650; in test [5], 2.21 OD 450-650; in test [6] it was 1.7 OD 450-650. Also, the OD in [7] was 2.1 OD 450-650; in test [8], 2.01 OD 450-650; in test [9], 2.15 OD 450-650; in test [10] it was 1.69 OD 450-650; in test [11] it was 0.25 OD 450-650; in test [12], 0.233 OD 450-650. Besides, the OD was 2.01 OD 450-650 in test [13] and 2.36 OD 450-650 in test [14].
